Where a chain is given by its changes, count along the chain named. Numbers in names are those of the source. Where “and” joins values, the source holds several entries; their conditions need not be identical. Identical values can stand only once. Values belong to the binder of their own block, whether it stands above or below them.
What was measured:
[1] = target: T1, full-length yeast Hsp90 (Hsp82) (yeast, UniProt P02829 1-709); experiment: AUC
[2] = target: T1, full-length yeast Hsp90 (Hsp82); experiment: fluorescence polarisation

T1 sequence (P02829 whole entry): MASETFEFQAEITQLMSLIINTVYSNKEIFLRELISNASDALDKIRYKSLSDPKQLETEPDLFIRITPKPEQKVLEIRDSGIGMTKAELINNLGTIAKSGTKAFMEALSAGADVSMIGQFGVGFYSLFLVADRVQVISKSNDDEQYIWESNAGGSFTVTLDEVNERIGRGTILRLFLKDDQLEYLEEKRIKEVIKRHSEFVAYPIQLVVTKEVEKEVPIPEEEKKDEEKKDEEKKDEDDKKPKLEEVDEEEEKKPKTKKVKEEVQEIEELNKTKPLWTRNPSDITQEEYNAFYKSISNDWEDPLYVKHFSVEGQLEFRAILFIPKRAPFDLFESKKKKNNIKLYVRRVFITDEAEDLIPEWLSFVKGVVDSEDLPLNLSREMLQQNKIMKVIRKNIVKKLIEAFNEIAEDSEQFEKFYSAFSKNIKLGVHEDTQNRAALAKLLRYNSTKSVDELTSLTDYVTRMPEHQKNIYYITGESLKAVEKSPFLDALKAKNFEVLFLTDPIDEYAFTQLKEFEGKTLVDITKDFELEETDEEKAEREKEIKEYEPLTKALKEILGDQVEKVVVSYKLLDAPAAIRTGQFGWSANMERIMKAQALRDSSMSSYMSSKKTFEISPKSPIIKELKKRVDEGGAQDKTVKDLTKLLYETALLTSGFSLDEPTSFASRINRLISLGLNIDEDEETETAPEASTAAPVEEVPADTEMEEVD

- binding result [1]: binds
B1: MR-LBD (C805S/A841C) (domain or fragment)
chain: APTKEPSVNSALVPQLTSITHALTPSPAMILENIEPETVYAGYDNSKPDTAESLLSTLNRLAAKQMIQVVKWAKVLPGFKNLPLEDQITLIQYSWMSLSSFALSWRSYKHTNSQLLYFAPDLVFNEEKMHQSCMYELCQGMRQISLQFVRLQLTFEEYSIMKVLLLLSTVPKDGLKSQAAFEEMRTNYIKELRKMVTKCPNSSGQSWQRFYQLTKLLDSMHDLVSDLLEFCFYTFRESQALKVEFPAMLVEIITDQLPKVESGNAKPLYFHRK

B2: p53-DBD (C124S/C229S/C277S) (domain or fragment)
chain: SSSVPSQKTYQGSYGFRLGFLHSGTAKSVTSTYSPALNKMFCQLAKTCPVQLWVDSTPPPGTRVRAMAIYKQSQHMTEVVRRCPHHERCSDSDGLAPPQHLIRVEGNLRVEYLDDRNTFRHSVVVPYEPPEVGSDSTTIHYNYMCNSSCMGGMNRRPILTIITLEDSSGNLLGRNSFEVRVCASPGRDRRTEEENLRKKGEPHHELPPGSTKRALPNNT
- binding result [1]: binds

- Kd [2]: 5.7 µM and 5.3 µM and 2.2 µM and 1.9 µM
B3: rat MR-LBD (amino acids 709 to 981; C805S) (domain or fragment)
chain: B1 chain with C133A
modifications: ATTO 488 maleimide, randomly on cysteine residues (anisotropy and AUC)

— paper PMC8682993 (Science Advances, 2021)
